Laboratory results as given in patent publication US20190309052A1 (Gilead, published 2019).

How the values were obtained:
[1] = target: T1, HBx AD38 (genotype D) residue 27-50 peptide (Hepatitis B virus genotype D); experiment: ELISA, 100 ng/mL antibody with varying peptide concentration
T1 construct: also called HBx27-50; HBx27-50 peptide
T1 peptide: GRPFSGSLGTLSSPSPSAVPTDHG

HBx69-87 control peptide = target: T2, HBx69-87 control peptide (Hepatitis B virus, UniProt P03165 69-87); experiment: ELISA with varying concentrations of peptide
T2 construct: range 69-87; also called HBx69-87 peptide
T2 peptide: CALRFTSARRMETTVNAHQ

B1: HBx M19 mouse monoclonal anti-HBx antibody (antibody, V domains shown)
VH: EVQLQQSGPELVKPGASVKISCQASGYTFTDYYMNWVKQSHGKRLEWIGDINPNNGGTAYNQKFKGKATLTVDRSSSTAYMEVRSLTSEDSAVYFCALLAYWGQGTLVTVSA
VL: DVVMTQTPLSLPVSLGDQASISCRSSQSLVYSDGNTHLHWYLQKTGQSPKLLIYKASNRFSGVPDRFSGSGSGTDFTLKISRVEAEDLGVYFCSQSTHVPLTFGAGTKLELKR
notes: also called aHBx mAb; αHBx mAb
B1: binds [1]; no binding (tested: 100 ng/mL antibody) (HBx69-87 control peptide).
